Measured values as given in publication PMC8568920, “Serum apolipoprotein A-I potentiates the therapeutic efficacy of lysocin E against Staphylococcus aureus” (Nature Communications, 2021).

Key:
[1] = target: biotinylated lysocin E derivative, Bu-type; test: BLI; BLItz system, room temperature; biotinylated ligand (0.1 mg/ml) immobilised on a streptavidin biosensor; PBS with 0.05% Tween-20; 300 s association and 300 s dissociation
[2] = target: biotinylated lysocin E derivative, natural type; test: as above

Kd [1]: 3.4 µM | Kd [2]: 3.6 µM
Substance: recombinant human apolipoprotein A-I, wild type (from UniProt P02647 19-267) (natural protein)
